Measured values reported in the supplement of paper PMC12042874.
± gives the uncertainty stated by the source.

Experiment: amyloid nucleation score (Sup35N fusion, yeast selection) (log enrichment); library NNK2; higher = more nucleation; inactive = no reads after selection
Method in brief: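 Random libraries were run with three technical output replicates. In each, psi-negative yeast expressing Sup35N fused to peptides of 20 random codons were induced 24 hours with 100 μM copper sulfate and grown 7 days at 30°C on medium lacking adenine and uracil, and input and output plasmid inserts were Illumina-sequenced. The nucleation score is the DiMSum log enrichment of output over input reads, centred on the mode score of non-aggregating sequences, and sequences under 100 input reads were excluded.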

| Substance | amyloid nucleation score |
| --- | --- |
| FVDRTCLVRSMLRVLPITGG | 0.065 ± 0.61 |
| FVFLVYYFSEFIH | inactive |
| FVFYSEEGLGHDLSNFTGGI | inactive |
| FVLMMDYEIIFLN | 4.52 ± 0.071 |
| FVLSMVLSIILLSLSHHLFG | 2.33 ± 0.2 |
| FVNQPKVRYLVSCYFMANLP | 0.016 ± 0.54 |
| FVRASGHTTCYSCQLSTPGP | 1.34 ± 0.15 |
| FVRGDSGFTLNAAR | -0.288 ± 0.3 |
| FVRSIDNSAYLLWVSLYPCM | -0.364 ± 0.79 |
| FVRSWSTCCDA | -0.176 ± 0.31 |
| FVRVCLSVIRYFTVTPGFKD | inactive |
| FVSGDHGTVWYIT | -0.036 ± 0.48 |
| FVSGRKNETYSKVIHVSDVD | -0.198 ± 0.62 |
| FVSSII | -1.29 ± 0.39 |
| FVWSKSR | 2.88 ± 0.13 |
| FVYVIFQSNMGPYWRNRRLL | 0.636 ± 0.81 |
| FVYWFKYT | -1.2 ± 1.1 |
| FWLNMYSVETVYGVVFAWEK | -0.694 ± 0.31 |
| FWVFTNIESMGLAYCDNQDL | 3.09 ± 0.064 |
| FWVLDSSADYRAS | 5.62 ± 0.075 |
| FWYCTHTTSYDGTLNSEWVT | 0.307 ± 0.26 |
| FWYSCR | -0.889 ± 0.41 |
| FYCRVFTLSGFVRIWGDC | -0.562 ± 1.1 |
| FYGVNVRIRCKH | 0.486 ± 0.66 |
| FYHCFDVLSSQMYYLKLLST | inactive |

| Substance | amyloid nucleation score |
| --- | --- |
| FYKDKETCLECWMIYENCRK | -0.29 ± 0.32 |
| FYKNAP | -1.06 ± 1.1 |
| FYLRGHACDSSWSNLVVGLW | 4.8 ± 0.083 |
| FYNRFRGFIFV | inactive |
| FYPAEFYGKGLVDRTLFFIC | 0.12 ± 0.18 |
| FYRGT | -0.974 ± 0.55 |
| FYSFGGNGDYSPKSGHWS | inactive |
| FYSLILMMEDGSEYVKVEFR | -1.38 ± 0.75 |
| FYSSPILM | -0.927 ± 0.41 |
| FYVRGGCI | -2.22 ± 0.76 |
| FYYLWWDSFRIVISMR | -1.86 ± 0.62 |
| GACGVSEVMHRVVFRGRLKR | 0.4 ± 0.39 |
| GADAGDCPRNHSCAMHAEGF | 1.13 ± 0.46 |
| GAEFTFGLFTYEFGIGQG | 0.285 ± 0.57 |
| GAGLRCLFGNSGYGERCVTM | 0.82 ± 0.44 |
| GAGPGSLAKRHYWDSSSQYE | -0.024 ± 0.31 |
| GAGWFNDFVHLPWHLEVSNY | -1.17 ± 1.1 |
| GAIDLMDALRCPAKTDTR | 0.811 ± 0.67 |
| GASFMSRNIRTWMTMWCDLK | 0.012 ± 0.23 |
| GATGGLSVCELVRCSELNRG | 0.985 ± 0.37 |
| GAVGARLAINGSSRWMCSWY | 2.39 ± 0.1 |
| GAWTAMSGVLMVMLWLWSVC | 1.83 ± 0.23 |
| GCGSPQSTFPRERCQVLVTA | 0.829 ± 0.49 |
| GCHSWSNLGEWCCYIYKMVI | -1.14 ± 0.78 |
| GCMTMTWMTNYLSFHNDTFT | 4.26 ± 0.065 |

| Substance | amyloid nucleation score |
| --- | --- |
| GCNIRTNVGRLCMSYPDSNR | 0.636 ± 0.18 |
| GCSLVKAYCSVL | 0.325 ± 0.6 |
| GCSNVCERGS | inactive |
| GCSVKFIFNHKSGYYIYLLF | -0.822 ± 0.54 |
| GCYLVNDASPVSHLVFLPM | inactive |
| GDFVGMLYNRCGHHMVIILT | -0.731 ± 0.35 |
| GDHVVFNWRAHSSSRIVSSY | 1.17 ± 0.68 |
| GDSFLWTHS | -0.994 ± 0.62 |
| GDYHSYGVVRSYFCATPSSG | 0.64 ± 0.44 |
| GECRCYHQTCGFHCNLGFGY | 4.7 ± 0.08 |
| GEGHWNYLLASFCNHGMCYF | 7.471 ± 0.029 |
| GEINENGKLCGGRAQGTGTY | -0.392 ± 0.63 |
| GELWCDLRILFVGVSLIVL | inactive |
| GENVVEACLWGQSQASWFIR | -0.009 ± 0.55 |
| GEQMWGYCRLYRGTGRGALG | 1.85 ± 0.16 |
| GFDLAWSWIPFSRWFALLVN | -0.486 ± 0.56 |
| GFDSDMVPHRSSRAVLC | 1.33 ± 0.46 |
| GFGCPA | -0.165 ± 1 |
| GFGVPDWMFDSFSAAQLSQI | -0.343 ± 0.35 |
| GFLFMVMRSQLRCVYINKY | 1.61 ± 0.15 |
| GFLNLCRSTSRELMCEMYSA | -0.651 ± 1.1 |
| GFMFVFWKFKHGLMGPCSRD | 0.684 ± 0.23 |
| GFRFSVIGI | -0.101 ± 0.63 |
| GFSRRGELHVSVYHIRDNVR | -1.11 ± 1.1 |
| GFTLEAKDWSTG | 0.778 ± 0.43 |

| Substance | amyloid nucleation score |
| --- | --- |
| GFVDELLNKRRLMCLIKTWK | 0.179 ± 0.44 |
| GGDDVEDMYALGPNFFEGG | 0.627 ± 0.66 |
| GGDLNHHFAWTTNKMHDERR | 4.537 ± 0.038 |
| GGERMRSRKYEYGGWNMCYY | inactive |
| GGGAAPNPTDYKSILLLC | 0.17 ± 0.34 |
| GGMLPYVVITFETFMPRCMN | -1.7 ± 0.75 |
| GGMVVPGKYRDRGY | -0.227 ± 0.26 |
| GGTSLRNTLGICLNYLQS | inactive |
| GGVIVQYLPFSNYLRKQGSL | -0.304 ± 0.39 |
| GGYSLWF | 0.292 ± 0.23 |
| GHIMKCGATRQYHCEDP | -0.614 ± 0.79 |
| GHMQYSYFLDLYSKLFCVFN | 4.52 ± 0.062 |
| GHNATNVGHIMFFITTWCCY | 8.955 ± 0.047 |
| GHSCLMVNNACSLDGHEESV | 1.16 ± 0.39 |
| GIGAQINHSVPLRGGKPRAL | -0.406 ± 1.1 |
| GIKYRSQCGCASDVCIKCRS | -0.054 ± 1.1 |
| GINRKDKMSKCTDLVVFCLG | -0.076 ± 0.33 |
| GINVSYLFIPHVGKICGNYN | 7.151 ± 0.047 |
| GIQVNYRWLGFGVGKRKARL | 5.547 ± 0.043 |
| GISCYLRVHTSANDESCSER | 0.426 ± 0.8 |
| GISCYMAPSGCRHNSVMSLW | 0.611 ± 0.5 |
| GIVVFINEMLTNTNPGKS | 6.954 ± 0.039 |
| GIYGSGIAFRRSGGWWEVCS | inactive |
| GIYNVLS | -0.108 ± 1.1 |
| GKFLCDV | 0.775 ± 0.31 |

| Substance | amyloid nucleation score |
| --- | --- |
| GLAEYRS | -0.488 ± 0.64 |
| GLFVRQGGLRVCWVLPVHAA | 0.645 ± 0.41 |
| GLLGAVDRTVR | 0.238 ± 0.56 |
| GLLKTQ | -0.087 ± 0.31 |
| GLLTGITILIVVDSCLGVCF | 3.99 ± 0.095 |
| GLLVLLLETCWKLVSFDLRK | 0.561 ± 0.39 |
| GLLVSGMINWYRVFIRNILL | -0.606 ± 0.38 |
| GLMAWR | 0.154 ± 0.37 |
| GLNVHVVRLGIQLFFKWNDI | 1.74 ± 0.18 |
| GLNVLCSLAIKAKLDGRWRH | 9.371 ± 0.072 |
| GLRELS | -0.874 ± 0.55 |
| GLSLLRGTNSGSAARLGANG | 0.452 ± 0.32 |
| GLTVHTVWLA | 0.189 ± 0.4 |
| GLVRPLSLMVETANAVHG | 1.39 ± 0.35 |
| GMDSFPFCMCRDCPYWGYDM | -0.745 ± 0.32 |
| GMLEGCRHHGIGWKGYACGQ | 2.94 ± 0.087 |
| GMSQAIVGVICSGIYLPEVR | 0.44 ± 0.37 |
| GMSYGESWIGTNLAGRVRAL | 1.29 ± 0.31 |
| GNGRHC | -0.021 ± 0.21 |
| GNIMSFSFMPDLGISFCPGC | 6.515 ± 0.049 |
| GNKMGCLFIGYCGFCTTVRP | 1.74 ± 0.15 |
| GNLVC | 0.821 ± 0.19 |
| GNRDSLNMFVCDRILRCPVQ | -0.273 ± 0.33 |
| GNRFPRPSPQGIIYKLLLFR | 2.92 ± 0.11 |
| GNTGCGVRACSGVCGKMDLV | 0.8 ± 0.27 |

| Substance | amyloid nucleation score |
| --- | --- |
| GNVGTRPQINTGSVCYMSCI | 4.6 ± 0.057 |
| GNVLTVIKAKDGS | -0.606 ± 0.49 |
| GNWMRYIFSKWARLWGWKTY | inactive |
| GNYISICESFF | -0.177 ± 1 |
| GPIWCRS | -0.467 ± 0.74 |
| GPLLVIWVRTLGRELG | 0.841 ± 0.26 |
| GPWAAVVRGFCPKGDKRSCG | -0.304 ± 0.41 |
| GRASMRACWVKMFYWFW | 0.981 ± 0.18 |
| GRDPGNDEIDKLALSWRLMG | 0.657 ± 0.32 |
| GRKISNCCQCWCHGL | 7.72 ± 0.042 |
| GRKLMWSRF | 0.004 ± 0.45 |
| GRNPVFWWQVLVATSRLNGQ | 1.05 ± 0.32 |
| GSASLCNSAERVYV | 0.681 ± 0.55 |
| GSDQNSCELSRRDIKKCMAL | 0.504 ± 0.33 |
| GSELMTSLSFVCGHVAAPAD | 0.669 ± 0.54 |
| GSEMIFYIAVVALCLCIPEG | 1.21 ± 0.22 |
| GSGNPGMSIFVKIY | -1.16 ± 0.62 |
| GSGSVAEIMRNVFLVCSW | -0.115 ± 0.34 |
| GSLAGAKL | -0.588 ± 0.76 |
| GSLGASVSNFGVAYSLCATR | -0.359 ± 0.65 |
| GSLMHEFAH | -0.698 ± 0.78 |
| GSMITCFVSDTLYKTVMVKL | 0.373 ± 0.54 |
| GSPWGSHGRHGLKHTKALKA | 1.1 ± 0.25 |
| GTFKDGMDSA | 3.75 ± 0.14 |
| GTLFIRSPYFCL | -0.478 ± 0.61 |

| Substance | amyloid nucleation score |
| --- | --- |
| GTMLMGVE | 0.449 ± 0.8 |
| GTRYLRVSFNCAVRV | 1.22 ± 0.69 |
| GTSWTVTID | 0.537 ± 0.18 |
| GTTVMGGILVLDGQALIGSM | 1.06 ± 0.28 |
| GVASMSRRARSHKMGGWMGR | 1.05 ± 0.41 |
| GVCPTVVCPHYIDVRML | 0.16 ± 0.55 |
| GVCVI | 0.775 ± 0.4 |
| GVCVKRFFKLVTAGECNSKG | -0.13 ± 0.4 |
| GVEVKSNVWTVSGWESQTPQ | 1.89 ± 0.42 |
| GVGGRVWTC | -0.998 ± 0.76 |
| GVGHFFLIQINKMCPHMRMA | 2.98 ± 0.13 |
| GVIRILWDECRTSDYFGCGT | 0.047 ± 0.26 |
| GVISYMTSRGRGLSNNMSNW | -0.15 ± 0.56 |
| GVIWTRAVANCIVLSGMS | -0.149 ± 0.55 |
| GVKRYDVHM | -0.244 ± 0.48 |
| GVLMIYYWVSMCLYALLIVF | inactive |
| GVPLLLRMTCSLCRIAFQE | 4.28 ± 0.069 |
| GVPYFLRW | -1.32 ± 0.48 |
| GVQTFVMTPTCKRNWLQDGR | 0.233 ± 0.27 |
| GVRSNLSYNIFVTCAMRASG | inactive |
| GVSNNALCSNRITSLNRPML | 0.313 ± 0.17 |
| GVTKNCSC | -0.036 ± 0.63 |
